Assay [1] deals with Herceptin Fab with a kappa light chain and binding specificity for Her2/neu (from the monoclonal antibody trastuzumab). Kind of assay: BLI (ForteBio), biotinylated ligand on sensor, 1:1 fit. For orientation: In BLI a coated tip is dipped into the sample, and binding shifts an interference pattern.
In assay [2] the target is Tremfya Fab with a lambda light chain and binding specificity for IL23 (from the monoclonal antibody guselkumab). Described as above.
Assay [3] addresses dimeric human IgG-lambda (Southern Biotech, Birmingham AL). The description is as above.
The target in assay [4] is Ajovy (IgG2 monoclonal antibody). Kind of assay: BLI, biotinylated ligand on sensor; 'Binding affinity (nM)'.
Assay [5] deals with Dupixent (IgG4 monoclonal antibody). The assay is described as above.
Assay [6] addresses Praluent (IgG1 monoclonal antibody). The assay is described as above.

This is an account of results in patent publication US20250059258A1.

B1: affinity ligand SEQ ID NO: 84 (designed binder)
chain: MGGGGSAAAGDEGGRWEGQGAAYAARGDYDRAIEYYERALELDPNNAWAWWDLGVAYAARGDYDRAIEYYERALELDPDDATAWSRLGHAYAARGDYDRAIEYYERALELDPEDETARYLLEHARRARQGQAGQGGGSGLNDIFEAQKIEWHECHHHHHH
modifications: biotinylated (AviTag system)
On to B1, for which the figures for the Kd in assay [1], in assay [2] and in assay [3] were 32 nM, 18 nM and under 1 nM, respectively.

B2: affinity ligand SEQ ID NO: 88 (designed binder)
chain: MGGGGSAAAGDEAQCWENQGAAYAARGDYDRAIEYYERALELDPNNAWAWWELGVAYAARGDYDRAIEYYERALELDPDDATAWSRLGHAYAARGDYDRAIEYYERALELDPEDETARYLLEHARRARQGQAGQGGGSGLNDIFEAQKIEWHECHHHHHH
modifications: biotinylated (AviTag system)
With B2, the figures for the Kd in assay [1], in assay [2] and in assay [3] were 32 nM, 10 nM and under 1 nM, respectively.

B3: affinity ligand SEQ ID NO: 93 (designed binder)
chain: MGGGGSAAAGDEAQRWENQGAAYAARGDYDRAIEYYERALELDPNNAWAWWELGVAYAARGDFDRAIEYYERALELDPDDATVWSRLGHAYAARGDYDRAIEYYERALELDPVDETARYLLEHARRARQGQAGQGGGSGLNDIFEAQKIEWHECHHHHHH
modifications: biotinylated (AviTag system)
Turning to B3, the Kd is 15 nM in assay [1], 4 nM in assay [2] and under 1 nM in assay [3].

B4: affinity ligand SEQ ID NO: 91 (designed binder)
chain: MGGGGSAAAGDEAQRWENQGAAYAARGDYDRAIEYYGRALELDPNNAWAWWELGVAYAARGDYDRAIEYYERALELDPDDATAWSRLGHAYAARGDYDRAIEYYERALELDPENETARYLLEHARRARQGQAGQGGGSGLNDIFEAQKIEWHECHHHHHH
modifications: biotinylated (AviTag system)
With B4, the Kd is 46 nM in assay [1], 11 nM in assay [2] and under 1 nM in assay [3].

B5: affinity ligand SEQ ID NO: 87 (designed binder)
chain: MGGGGSAAAGDEAQHWENQGAAYAARGDYDRAIEYYERALELDPNNAWAWWELGVAYAARGDYDRAIEYYERALELDPDDATVWSRLGHAYAARGDYDRAIEYYERALELDPEDETARYLLEHARRARQGQAGQGGGSGLNDIFEAQKIEWHECHHHHHH
modifications: biotinylated (AviTag system)
For B5, the figures for the Kd in assay [1], in assay [2] and in assay [3] were 84 nM, 10 nM and under 1 nM, respectively.

B6: affinity ligand SEQ ID NO: 86 (designed binder)
chain: MGGGGSAAAGDEAQRWENQGAAYAARGDYDRAIECYESALELDPNNAWAWWELGVAYAARGDYDRAIEYYERALELDPDDAIAWSRLGHAYAARGDYDRAIEYYERALELDPEDETARYLLEHARRARQGQAGQGGGSGLNDIFEAQKIEWHECHHHHHH
modifications: biotinylated (AviTag system)
On to B6, for which the Kd in assay [1] was 28 nM; in assay [2] it was 8 nM; in assay [3], under 1 nM.

B7: affinity ligand SEQ ID NO: 154 (designed binder)
chain: MGDEAERWYDLGAAYAARGDYDRAIEYYQRALELDPNDAWAWWELGVAYAARGDYDRAIEYYQRALELDPNNAVAWARLGIAYAARGDYDRAIEYYQRALELDPNNEVARDALEYARRARRCHHHHHH
modifications: biotinylated (AviTag system)
Turning to B7, the Kd is 92 nM in assay [4], 13 nM in assay [5] and under 1 nM in assay [6].

B8: affinity ligand SEQ ID NO: 155 (designed binder)
chain: MGDEAERWYDLGAAYAARGDYDRAIEYYQRALEHDPNDAWAWWELGVAYAARGDYDRAIEYYQRALELDTNNAVAWARLGIAYAARGDYDRAIEYYQRALELDPNNEVARGALEYARRARRCHHHHHH
modifications: biotinylated (AviTag system)
B8: the Kd in assay [4] is 117 nM; in assay [5], 32 nM; in assay [6], under 1 nM.

B9: affinity ligand SEQ ID NO: 158 (designed binder)
chain: MGDEAERWYDLGAAYAARGDYDRAIEYYQRALELDPNDAWAWWELGVAYAARGDYDRAIEYYQRALELDLNNAVAWARLGIAYAARGDYDRAIEYYQRALELDPNNEVARDALEYARRARRCHHHHHH
modifications: biotinylated (AviTag system)
With B9, the Kd was 282 nM in assay [4], 176 nM in assay [5] and under 1 nM in assay [6].

B10: affinity ligand SEQ ID NO: 159 (designed binder)
chain: MGHHHHHHDEAERWYDLGAAYAARGDYDRAIEYYQRALEHDPNDAWAWWELGVAYAARGDYDRAIEYYQRALELDTNNAVAWARLGIAYAARGDYDRAIEYYQRALELDPNNEVARGALEYARRARRC
modifications: biotinylated (AviTag system)
Consider B10, for which the Kd in assay [4] was 436 nM; in assay [5], 9 nM; in assay [6], under 1 nM.

B11: affinity ligand SEQ ID NO: 160 (designed binder)
chain: MGHHHHHHDEAERWYDLGAAYAARGDYDRAIEYYQRALELDPNDAWAWWELGVAYAARGDYDRAIEYYQRALELDLNNAVAWARLGIAYAARGDYDRAIEYYQRALELDPNNEVARDALEYARRARRC
modifications: biotinylated (AviTag system)
On to B11, for which the Kd in assay [4] was 543 nM; in assay [5], 24 nM; in assay [6], under 1 nM.

B12: affinity ligand SEQ ID NO: 157 (designed binder)
chain: MGLAEAAAREAAARAADEAERWYDLGAAYAARGDYDRAIEYYQRALEHDPNDAWAWWELGVAYAARGDYDRAIEYYQRALELDTNNAVAWARLGIAYAARGDYDRAIEYYQRALELDPNNEVARGALEYARRARRHHHHHH
modifications: biotinylated (AviTag system)
As for B12, the Kd is 270 nM in assay [4], 8 nM in assay [5] and under 1 nM in assay [6].

B13: affinity ligand SEQ ID NO: 94 (designed binder)
chain: MGGGGSAAAGDEAVRWEIQGAAYAARGDYDRAIEYYERALELDPNNAWAWWELGVAYAARGDYDRAIEYYERALELDPDDAHVWFRLGWAYAVRGDYDRAIEYYERALELDPEDELARRILEDARRARQGQAGQGGGSGLNDIFEAQKIEWHECHHHHHH
modifications: biotinylated (AviTag system)
On to B13, for which the values for the Kd in assay [1], in assay [2] and in assay [3] were 14 nM, 3 nM and under 1 nM, respectively.

B14: affinity ligand SEQ ID NO: 174 (designed binder)
chain: MGDEADRWYDQGAAYAARGDYDRAIEYYERALELDPNNAWAWWELGVAYAARGDYDRAIEYYQRALELDPNDAVAWARLGHAYAARGDYDRAIEYYQRALELDPNNEAARSNLEYARRAAACGLNDIFEAQKIEWHEHHHHHH
modifications: biotinylated (AviTag system)
As for B14, the Kd in assay [5] was 221 nM; in assay [6], under 1 nM.

B15: affinity ligand SEQ ID NO: 79 (designed binder)
chain: MGGGGSAAAGDEADRWADLGAAYAARGDYDRAIEYYQRALELDPNNAWAWWDLGVAYAARGDYDRAIEYYQRALELDPNNAVAWRRLGHAYAARGDYDRAIEYYQRALELDPNNELAREQLERARRARHGQAGQGGGSGLNDIFEAQKIEWHECHHHHHH
modifications: biotinylated (AviTag system)
In the case of B15, the results for the Kd in assay [1], in assay [2] and in assay [3] were 67 nM, 28 nM and under 1 nM, respectively.

B16: affinity ligand SEQ ID NO: 83 (designed binder)
chain: MGGGGSAAAGDEADRWADLGAAYAARGDYDRAIEYYQRALELDPNNAWAWWDLGVAYAARGDYDRAIEYYQRALELDPNNAVAWRRLGHAYAARGDYDRAIEYYQRALELDPNNELAREQLGRARRARRGQAGQGGGSGLNDIFEAQKIEWHECHHHHHH
modifications: biotinylated (AviTag system)
As for B16, the Kd in assay [1] is 22 nM; in assay [2], 8 nM; in assay [3], under 1 nM.

B17: affinity ligand SEQ ID NO: 81 (designed binder)
chain: MGGGGSAAAGDEAERWYDLGAAYAARGDYDRAIEYYQRALELDPNNAWAWWELGVAYAARGDYDRAIEYYQRALELDPNNAVAWRRLGIAYAARGDYDRAIEYYQRALELDPNNEVARDALEYARRARRGQAGQGGGSGLNDIFEAQKIEWHECHHHHHH
modifications: biotinylated (AviTag system)
On to B17, for which the Kd is 31 nM in assay [1], 8 nM in assay [2] and under 1 nM in assay [3].

B18: affinity ligand SEQ ID NO: 82 (designed binder)
chain: MGGGGSAAAGDEAGRWYDLGAAYAARGDYDRAIEYYQRALELDPNNAWAWWELGVAYAARGDYDRAIEYYQRALELDPNNAVAWARLGIAYAARGDYDRAIEYYQRALELDPNNEVARDALEYARRARRGQAGQGGGSGLNDIFEAQKIEWHECHHHHHH
modifications: biotinylated (AviTag system)
With B18, the Kd in assay [1] was 23 nM; in assay [2] it was 6 nM; in assay [3], under 1 nM.

B19: affinity ligand SEQ ID NO: 85 (designed binder)
chain: MGGGGSAAAGDEAERWDYLGAAYAARGDYDRAIEYYQRALELDPNNAWAWWDLGLAYAARGDYDRAIEYYQRALELDPNNAVAWFRLGWAYAARGDYDRAIEYYQRALELDPNNELARSELENARRARRGQAGQGGGSGLNDIFEAQKIEWHECHHHHHH
modifications: biotinylated (AviTag system)
For the molecule B19, the Kd in assay [1] was 53 nM; in assay [2] it was 26 nM; in assay [3] it was under 1 nM.

B20: affinity ligand SEQ ID NO: 156 (designed binder)
chain: MAWAEFRQRLAAIRTRLEALGGSEAELAAFEREIAAFESELQAYAGAGNPEVEALRREAAAIRDELQAYRHNDEAERWYDLGAAYAARGDYDRAIEYYQRALEHDPNDAWAWWELGVAYAARGDYDRAIEYYQRALELDTNNAVAWARLGIAYAARGDYDRAIEYYQRALELDPNNEVARGALEYARRARRHHHHHH
modifications: biotinylated (AviTag system)
Regarding B20, the values for the Kd in assay [4], in assay [5] and in assay [6] were 224 nM, 7 nM and under 1 nM, respectively.

B21: affinity ligand SEQ ID NO: 161 (designed binder)
chain: MAWAEFRQRLAAIRTRLEALGGSEAELAAFEREIAAFESELQAYAGAGNPEVEALRREAAAIRDELQAYRHNDEAERWYDLGAAYAARGDYDRAIEYYQRALELDPNDAWAWWELGVAYAARGDYDRAIEYYQRALELDLNNAVAWARLGIAYAARGDYDRAIEYYQRALELDPNNEVARDALEYARRARRHHHHHH
modifications: biotinylated (AviTag system)
In the case of B21, the Kd in assay [4] was 654 nM; in assay [5] it was 31 nM; in assay [6], under 1 nM.

B22: affinity ligand SEQ ID NO: 80 (designed binder)
chain: MGGGGSAAAGDEADRWAALGAAYAARGDYDRAIEYYQRALELDPNNAWAWWDLGVAYAARGDYDRAIEYYERALELDPDDAHAWFRLGWAYAARGDYDRAIEYYERALELDPEDETARDVLEGARRARQGQAGQGGGSGLNDIFEAQKIEWHECHHHHHH
modifications: biotinylated (AviTag system)
Take B22: the Kd in assay [1] was 7 nM; in assay [2], 4 nM; in assay [3], under 1 nM.

Broadly, the Kd is the free concentration of one partner at which half of the binding sites on the other are occupied at equilibrium, for simple one-to-one binding. A high value points to weaker binding.
